{"source": "paper PMC3062594", "about": "“Intermolecular masking of the HIV-1 Rev NLS by the cellular protein HIC: Novel insights into the regulation of Rev nuclear import” (Retrovirology, 2011)", "molecular_target": "T1, recombinant 6×His-HIC (Human I-mfa domain-Containing protein) (human, UniProt Q9P1T7-2 1-246)", "T1 construct": "also called 6xHis-HIC; 6ΧHis HIC; source: recombinant, purified; produced as described previously [25]; not shown: 6xHis, N-terminal, kept", "T1 sequence (looked up)": "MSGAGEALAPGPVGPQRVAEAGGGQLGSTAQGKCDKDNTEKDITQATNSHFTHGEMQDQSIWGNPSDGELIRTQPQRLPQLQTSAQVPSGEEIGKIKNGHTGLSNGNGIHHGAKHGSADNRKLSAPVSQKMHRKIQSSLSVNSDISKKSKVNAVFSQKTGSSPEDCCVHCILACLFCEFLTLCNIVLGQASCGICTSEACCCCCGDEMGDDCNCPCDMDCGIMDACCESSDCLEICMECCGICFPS", "test": "pull-down", "details": "both partners purified"}
{"binder": "RQARRNRRRRWR (domain or fragment, source: recombinant GST fusion protein, purified; produced as described previously; not shown: GST, N-terminal, kept; YFP, N-terminal, kept)", "note": "[GST-YFP-RevNLS (aa35-46)]", "values": [{"measurement": "binding result", "value": "binds"}]}
